Drawing on publication PMC9834060, this text covers stoichiometry N for three substances.

A word on the stoichiometry N: it is a count of units in the complex or per binding partner.

Common to all, as to experiment: cryo-EM structure; BlaR1 in LMNG, purified by GraDeR glycerol gradient, desalted into 150 mM sodium chloride, 20 mM HEPES pH 7.5; grids blotted at 4 °C; BlaR1(F284A) also with ampicillin (1 mM, then 250 µM)
Experiment [1] deals with S. aureus BlaR1 F284A mutant (BlaR1(F284A)) (S. aureus) (UniProt Q00419).
Experiment [2] addresses S. aureus BlaR1 F284A mutant acylated with ampicillin (BlaR1(F284A)–ampicillin) (S. aureus) (UniProt Q00419).
The target in experiment [3] is S. aureus BlaR1, wild type (BlaR1(WT)) (S. aureus) (UniProt Q00419).

For “S. aureus BlaR1 F284A mutant (BlaR1(F284A)) (from UniProt Q00419 1-585) (receptor)”, in experiment [1], the stoichiometry N came to 2. Regarding “S. aureus BlaR1 F284A mutant acylated with ampicillin (BlaR1(F284A)–ampicillin) (from UniProt Q00419 1-585) (receptor)”, in experiment [2], the stoichiometry N came out at 2. With “S. aureus BlaR1, wild type (BlaR1(WT)) (from UniProt Q00419 1-585) (receptor)”, the stoichiometry N in experiment [3] stood at 2.
